Data reported in patent US20130210034A1, “COMPLEX PHOSPHOPROTEIN ACTIVATION PROFILES” (BECKMAN COULTER, INC., priority 2005, published 2013).
Several values for one entry are separate records, joined by “and”; a condition that tells them apart may be missing. Identical values can stand only once.

What was measured:
Assay in all cases: Cytokine-stimulated phosphorylation in immunophenotypically defined cell populations from healthy donor BM (flow cytometry);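 on pSTAT3 S/N ratio: Phosphoprotein MFI normalized to lymphocyte MFI as internal negative control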;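 on pSTAT5 S/N ratio: Phosphoprotein MFI normalized to lymphocyte MFI as internal negative control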
Type in all cases: cell-based, human
[1] = system: pSTAT5; settings: healthy donor BM, mean ± SD;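 on pSTAT5 S/N ratio: Phosphoprotein MFI normalized to lymphocyte MFI as internal negative control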
Experimental: (§1) Bone marrow (BM) samples were collected in 7.5 mL Iscove's modified Dulbecco's medium (IMDM) supplemented with 100U penicillin, 0.01 mg/mL streptomycin, and 70 μg/mL heparin sodium salt from 10 patients undergoing hip replacement surgery, who were otherwise healthy. These patients were from a pool of surgery patients, age 49 to 77, and represented […] patients. […] These BM samples were rinsed twice with IMDM to release cells, filtered using a 100 μm Nylon cell strainer to remove marrow particles, and centrifuged for at RT fro 7 minutes at 200 g. The cell pellet was washed twice with sterile IMDM to remove traces of fat and re-suspended in IMDM to a concentration of 3×10^7 cells/mL.
(§2) To assess the signal transduction response after growth factor simulation, a series comprising two sets of tubes including about 3×10^6 cells/100 μL were incubated at 37° C. for 30 minutes. After this pre-incubation period, tubes with then processes with either a stimulant or inhibitor. […] To examine the effects of protein phosphorylation inhibition, tubes were incubated with an inhibitor cocktail comprising 100 μM/100 μL UO126, 1 μM/100 μL LY294002, and 1 μM/100 μL rapamycin. One unstimulated tube receiving no stimulant or inhibitor was processed to assess basal levels of phospho-protein expression. After stimulation the cells were immediately fixed in 10% formaldehyde solution at 37° C. Pre-labeling with CD13, CD16 and CD64 antibodies was carried out 20 minutes prior to formaldehyde fixation. After fixation, one set of tubes was permeabilized without methanol for pAKT, pERK and pS6 staining and the other for 80% methanol permeabilized for pSTAT3 and pSTAT5 staining. After permeablization, the cells were washed in PBS with 2% BSA and blocked by re-suspended in 75 μL of PBS comprising 25% heat inactivated normal mouse serum, 25% normal rabbit serum. To stain cells with fluorescent conjugated monoclonal antibodies, samples were incubated on ice for 45 minutes in 100 μL of an antibody staining solution including either: 1) CD15-Pacific Orange, CD34-Phycoerythrin-Texas Red, CD117-Phycoerythrin-Cyanin 5.5, CD45-Allophycocyanin-Alexa Fluor 750 (or CD45-Pacific Orange, in which case CD15-Pacific Orange was omitted), pS6-Pacific Blue, pERK-Alexa Fluor 488 and pAKT-Alexa Fluor 647 or 2) CD15-Pacific Orange, CD34-Phycoerythrin-Texas Red, CD117-Phycoerythrin-Cyanin 5.5, CD45-Allophycocyanin-Alexa Fluor 750 or CD45-Pacific Blue, pSTAT3-Alexa Fluor 488 and pSTAT5-Phycoerythrin. The stained cells were washed twice with ice cold PBS containing 2% BSA and centrifuged at 800 g for 6 minutes at 4° C. The supernatant was discarded and cells re-suspended in 250 μL of chilled wash buffer for data acquisition. Stained cells were examined using either GALIOS flow cytometer (Beckman Coulter) or CYAN ADP (Beckman Coulter) equipped with 488 nm, 405 nm and 635 nm lasers to detect the degree of fluorescence. Data were analyzed using FCS Express (De Novo Software, CA) analysis software.
(§3) Specific phosphoprotein expression of pERK, pS6, pAKT, pSTAT5, and pSTAT3 was examined in seven discrete phenotypically defined populations based on 7-color immunophenotyping (FIG. 1). The percent of responding (phosphorprotein positive) cells for each of these populations was determined from individual single parameter histograms based on a fixed integration region set on the inhibitor treated control at about 3% positives.

[2] = system: pSTAT3; settings: healthy donor BM, mean ± SD;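 on pSTAT3 S/N ratio: Phosphoprotein MFI normalized to lymphocyte MFI as internal negative control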
Experimental: as §1, §2, §3

[3] = system: pERK; settings: for pERK Percent (%) Responding Cells, Mean / pERK S/N ratio: healthy donor BM, mean ± SD
Experimental: as §1, §2, §3

[4] = system: pS6; settings: healthy donor BM, mean ± SD
Experimental: as §1, §2, §3

[5] = system: pAKT; settings: for pAKT Percent (%) Responding Cells, Mean / pAKT S/N ratio: healthy donor BM, mean ± SD
Experimental: as §1, §2, §3

B1: FMS-Like Tyrosine Kinase 3 (FLT-3) ligand (protein, UniProt P49771 27-235, looked up)
Fms-related tyrosine kinase 3 …: TQDCSFQHSPISSDFAVKIRELSDYLLQDYPVTVASNLQDEELCGGLWRLVLAQRWMERLKTVAGSKMQGLLERVNTEIHFVTKCAFQPPPSCLRFVQTNISRLLQETSEQLVALKPWITRQNFSRCLELQCQPDSSTLPPPWSPRPLEATAPTAPQPPLLLLLLLPVGLLLLAAAWCLHWQRTRRRTPRPGEQVPPVPSPQDLLLVEH
pSTAT5 Percent (%) Responding Cells, Mean ([1]; CD34^+ (CD34^+/CD117^+ cells)): 16.1 ± 6.1% | pSTAT5 S/N ratio ([1]; CD34^+ (CD34^+/CD117^+ cells)): 1.9 ± 1.4 | pSTAT5 Percent (%) Responding Cells, Mean ([1]; CD117^+ (CD34^−/CD117^+ cells)): 5.7 ± 5.8% | pSTAT5 S/N ratio ([1]; CD117^+ (CD34^−/CD117^+ cells)): 2.1 ± 0.6 | pSTAT5 Percent (%) Responding Cells, Mean ([1]; G1, immature myeloid cells): 2.7 ± 2.5% | pSTAT5 S/N ratio ([1]; G1, immature myeloid cells): 2.6 ± 0.5 | pSTAT5 Percent (%) Responding Cells, Mean ([1]; G2, intermediate myeloid cells): 2.0 ± 1.6% | pSTAT5 S/N ratio ([1]; G2, intermediate myeloid cells): 2.7 ± 0.5 | pSTAT5 Percent (%) Responding Cells, Mean ([1]; G3, mature myeloid cells): 3.1 ± 1.0% | pSTAT5 S/N ratio ([1]; G3, mature myeloid cells): 3.2 ± 0.7 | pSTAT5 Percent (%) Responding Cells, Mean ([1]; Mono, monocytes): 3.1 ± 1.9% | pSTAT5 S/N ratio ([1]; Mono, monocytes): 3.9 ± 4.9 | pSTAT3 Percent (%) Responding Cells, Mean ([2]; CD34^+ (CD34^+/CD117^+ cells)): 13.5 ± 9.4% | pSTAT3 S/N ratio ([2]; CD34^+ (CD34^+/CD117^+ cells)): 3.5 ± 3.3 | pSTAT3 Percent (%) Responding Cells, Mean ([2]; CD117^+ (CD34^−/CD117^+ cells)): 3.5 ± 2.2% | pSTAT3 S/N ratio ([2]; CD117^+ (CD34^−/CD117^+ cells)): 2.6 ± 0.6 | pSTAT3 Percent (%) Responding Cells, Mean ([2]; G1, immature myeloid cells): 2.7 ± 3.3% | pSTAT3 S/N ratio ([2]; G1, immature myeloid cells): 3.4 ± 0.4 | pSTAT3 Percent (%) Responding Cells, Mean ([2]; G2, intermediate myeloid cells): 1.8 ± 1.4% | pSTAT3 S/N ratio ([2]; G2, intermediate myeloid cells): 3.3 ± 0.6 | pSTAT3 Percent (%) Responding Cells, Mean ([2]; G3, mature myeloid cells): 5.3 ± 5.6% | pSTAT3 S/N ratio ([2]; G3, mature myeloid cells): 3.7 ± 0.5 | pSTAT3 Percent (%) Responding Cells, Mean ([2]; Mono, monocytes): 4.8 ± 3.9% | pSTAT3 S/N ratio ([2]; Mono, monocytes): 2.6 ± 0.4 | pERK Percent (%) Responding Cells, Mean ([3]; CD34^+ (CD34^+/CD117^+ cells)): 76.9% and 76.9 ± 11.0% | pERK S/N ratio ([3]; CD34^+ (CD34^+/CD117^+ cells)): 11.9 ± 3.6 | pERK Percent (%) Responding Cells, Mean ([3]; CD117^+ (CD34^−/CD117^+ cells)): 37.1 ± 8.8% | pERK S/N ratio ([3]; CD117^+ (CD34^−/CD117^+ cells)): 10.9 ± 2.9 | pERK Percent (%) Responding Cells, Mean ([3]; G1, immature myeloid cells): 3.3 ± 5.4% | pERK S/N ratio ([3]; G1, immature myeloid cells): 2.9 ± 0.7 | pERK Percent (%) Responding Cells, Mean ([3]; G2, intermediate myeloid cells): 6.3 ± 11.2% | pERK S/N ratio ([3]; G2, intermediate myeloid cells): 2.8 ± 0.6 | pERK Percent (%) Responding Cells, Mean ([3]; G3, mature myeloid cells): 9.1 ± 15.6% | pERK S/N ratio ([3]; G3, mature myeloid cells): 3.6 ± 1.3 | pERK S/N ratio ([3]; Mono, monocytes): 12.8 and 12.8 ± 6.7 | pERK, Normal Sample ([3]; Table 7 comparison value, matches percent responding CD34^+ cells of Tables 1-5): 76.9 | pS6 Percent (%) Responding Cells, Mean ([4]; CD34^+ (CD34^+/CD117^+ cells)): 68.8% and 68.8 ± 21.1% | pS6 S/N ratio ([4]; CD34^+ (CD34^+/CD117^+ cells)): 31.1 ± 26.0 | pS6 Percent (%) Responding Cells, Mean ([4]; CD117^+ (CD34^−/CD117^+ cells)): 36.1 ± 16.4% | pS6 S/N ratio ([4]; CD117^+ (CD34^−/CD117^+ cells)): 44.4 ± 44.4 | pS6 Percent (%) Responding Cells, Mean ([4]; G1, immature myeloid cells): 2.1 ± 1.5% | pS6 S/N ratio ([4]; G1, immature myeloid cells): 3.3 ± 1.9 | pS6 Percent (%) Responding Cells, Mean ([4]; G2, intermediate myeloid cells): 2.5 ± 1.9% | pS6 S/N ratio ([4]; G2, intermediate myeloid cells): 2.9 ± 1.8 | pS6 Percent (%) Responding Cells, Mean ([4]; G3, mature myeloid cells): 3.9 ± 2.7% | pS6 S/N ratio ([4]; G3, mature myeloid cells): 3.6 ± 2.3 | pS6 S/N ratio ([4]; Mono, monocytes): 33.4 and 33.4 ± 30.5 | pAKT Percent (%) Responding Cells, Mean ([5]; CD34^+ (CD34^+/CD117^+ cells)): 34.3% and 34.3 ± 19.4% | pAKT S/N ratio ([5]; CD34^+ (CD34^+/CD117^+ cells)): 7.2 ± 4.9 | pAKT Percent (%) Responding Cells, Mean ([5]; CD117^+ (CD34^−/CD117^+ cells)): 20.5 ± 28.3% | pAKT S/N ratio ([5]; CD117^+ (CD34^−/CD117^+ cells)): 2.8 ± 2.9 | pAKT Percent (%) Responding Cells, Mean ([5]; G1, immature myeloid cells): 3.0 ± 4.3% | pAKT S/N ratio ([5]; G1, immature myeloid cells): 2.3 ± 1.1 | pAKT Percent (%) Responding Cells, Mean ([5]; G2, intermediate myeloid cells): 3.6 ± 5.0% | pAKT S/N ratio ([5]; G2, intermediate myeloid cells): 2.4 ± 1.0 | pAKT Percent (%) Responding Cells, Mean ([5]; G3, mature myeloid cells): 3.8 ± 2.5% | pAKT S/N ratio ([5]; G3, mature myeloid cells): 2.7 ± 1.3 | pAKT Percent (%) Responding Cells, Mean ([5]; Mono, monocytes): 21.5% and 21.5 ± 23.8% | pAKT S/N ratio ([5]; Mono, monocytes): 4.2 ± 3.0 | pAKT, Normal Sample ([5]; Table 7 comparison value): 76.9
